Molecular target: affinity-matured, humanized, antiprostate stem-cell antigen (PSCA) minibody (clone A11.1 2C3)
Experiment: SEC

B1: affinity-matured, humanized, antiprostate stem-cell antigen (PSCA) minibody (clone A11.1 2C3) (antibody, V domains shown)
VH: EVQLVEYGGGLVQPGGSLRLSCAASGFNIKDYYIHWVRQAPGKGLEWVAWIDPENGDTEFVPKFQGRATMSADTSKNTAYLQMNSLRAEDTAVYYCKTGGFWGQGTLVTVSS
VL: DIQLTQSPSTLSASMGDRVTITCSASSSVRFIHWYQQKPGKAPKRLIYDTSKLASGVPSRFSGSGSGTDFTLTISSLQPEDFATYYCQQWGSSPFTFGQGTKVEIK
With B1 the stoichiometry N was 2.

From publication PMC3187938
